The experiment has as its target enterovirus 71 (EV71) virions (enterovirus 71). As to the kind of experiment: cell-based or functional assay.

B1: monoclonal antibody E18 produced by the hybridoma cell line EV18/4 (antibody, V domains shown)
VH: QIQLVQSGPELKKPGETVKISCKASGYTFTRYGMSWVKQAPGKGLKWMGWINTYSGVPTYADDFKGRFAFSLETSASTAYLQINNLKNEDTATYFCARRGYSNYYPMDFWGQGTSVTVSS
VL: DIKMTQSPSSMYASLGERVTITCKASQDIKSYLSWYQQKPWKSPKTLIYYAKNLADGVPSRFSGSGFGQDYSLTISSLESDDTATYYCLQHGESPYTFGSGTKLEIKR
Turning to B1, the Inhibitory concentration 50 (IC50), Vero ATCC amounted to 0.272 µg/mL; the Inhibitory concentration 50 (IC50), Vero NIBSC turned out to be 0.181 µg/mL; the PRNT50 of original hybridoma was 0.625 µl/ml; the end point PRNT50, Vero ATCC was 625 ng/mL. This molecule also yielded an end point PRNT50, Vero NIBSC of 312 ng/mL.

B2: monoclonal antibody E20 produced by the hybridoma cell line EV20/5 (antibody, V domains shown)
VH: EVQLVESGGGLVKPGGSLKLSCAASGFTFNIYAMSWVRQTPEKRLEWVATISDGGSYTYYPDNVKGRFTISRDNAKNNLYLQMSHLKSEDTAMYYCVRDRGNYYSRAFPYAYWGQGTLVTVSA
VL: SIVMTQTPKFLPVSAGDRVTMTCKASQSVGNNVAWYQQKSGQSPKLLIYYASNRYTGVPDRFTGSGSGTDFTFTISSVQVEDLAVYFCQQHYSSPPTFGAGTKLELK
B2: the Inhibitory concentration 50 (IC50), Vero NIBSC came to 9.95 µg/mL; the PRNT50 of original hybridoma was found to be 5 µl/ml; the end point PRNT50, Vero NIBSC was 10000 ng/mL.

Values taken from US20160333075A1.
